In patent publication US20240261333A1, “NOVEL TARGETS FOR ENHANCING ANTI-TUMOR IMMUNITY” (THE BROAD INSTITUTE, INC., priority 2021, published 2024):

Molecular target: T1, B3GNT2 (Homo sapiens, UniProt Q9NY97)
T1 construct: The respective ORFs of candidate genes [CD274 (NM_014143), MCL1 (NM_021960), JUNB (NM_002229), and B3GNT2 (NM_006577)] were synthesized; expressed in transfected cells; host or cells: A375 melanoma cells (lentiviral ORF overexpression)
T1 sequence (Q9NY97 1-397): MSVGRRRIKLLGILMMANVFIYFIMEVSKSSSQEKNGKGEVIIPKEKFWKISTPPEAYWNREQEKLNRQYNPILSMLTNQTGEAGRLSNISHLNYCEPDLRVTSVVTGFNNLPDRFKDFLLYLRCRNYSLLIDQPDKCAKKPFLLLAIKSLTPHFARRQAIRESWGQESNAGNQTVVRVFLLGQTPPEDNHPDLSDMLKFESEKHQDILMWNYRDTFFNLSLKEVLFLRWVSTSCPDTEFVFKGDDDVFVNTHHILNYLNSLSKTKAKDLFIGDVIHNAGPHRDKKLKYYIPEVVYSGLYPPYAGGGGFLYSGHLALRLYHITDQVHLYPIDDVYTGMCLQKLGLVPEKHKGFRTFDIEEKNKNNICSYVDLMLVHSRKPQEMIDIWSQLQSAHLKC
Test: Co-IP of FLAG-tagged B3GNT2 followed by mass spectrometry
Type: cell-based
Set-up: C-term IgG / C-term flag: unit not given here
Settings: mass spectrometry count, unit not given; for C-term flag / N-term FLAG: Co-IP with FLAG antibody; for C-term flag / C-term IgG: C-terminally FLAG-tagged B3GNT2; for N-term FLAG / N-term IgG: N-terminally FLAG-tagged B3GNT2; for C-term IgG / N-term IgG: Co-IP with IgG control antibody
Method in brief: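 FLAG-tagged B3GNT2 immunoprecipitated from cell lysate (HEPES, 1% Triton X-100, 150 mM NaCl) with anti-FLAG versus […], overnight at 4° C, then captured on Protein A/G magnetic beads for 4 h. Two biological replicates per condition. Peptides fractionated and analyzed by nano-LC on an Orbitrap Elite in data-dependent mode.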

B1: OS9 (protein)
chain: GGVGSLNLEELSEMRYGIEILPLPVMGGQSQSSDVVIVSSKYKQRYECRLPAGAIHFQREREEETPAYQGPGIPELLSPMRDAPCLLKTKDWWTYEFCYGRHIQQYHMEDSEIKGEVLYLGYYQSAFDWDDETAKASKQHRLKRYHSQTYGNGSKCDLNGRPREAEVRFLCDEGAGISGDYIDRVDEPLSCSYVLTIRTPRLCPHPLLRPPPSAAPQAILCHPSLQPEEYMAYVQRQADSKQYGDKIIEELQDLGPQVWSETKSGVAPQKMAGASPTKDDSKDSDFWKMLNEPEDQAPGGEEVPAEEQDPSPEAADSASGAPNDFQNNVQVKVIRSPADLIRFIEELKGGTKKGKPNIGQEQPVDDAAEVPQREPEKERGDPERQREMEEEEDEDEDEDEDEDERQLLGEFEKELEGILLPSDRDRLRSETEKELDPDGLKKESERDRAMLALTSTLNKLIKRLEEKQSPELVKKHKKKRVVPKKPPPSPQPTEEDPEHRVRVRVTKLRLGGPNQDLTVLEMKRENPQLKQIEGLVKELLEREGLTAAGKIEIKIVRPWAEGTEEGARWLTDEDTRNLKEIFFNILVPGAEEAQKERQRQKELESNYRRVWGSPGGEGTGDLDEFDF
B1 was tested, and the C-term flag was 9, the “N-term FLAG” value was 3 and the “C-term IgG” value was 0. For the same molecule, the “N-term IgG” value was 0.

B2: TRIM28 (protein)
chain: AASAAAASAAAASAASGSPGPGEGSAGGEKRSTAPSAAASASASAAASSPAGGGAEALELLEHCGVCRERLRPEREPRLLPCLHSACSACLGPAAPAAANSSGDGGAAGDGTVVDCPVCKQQCFSKDIVENYFMRDSGSKAATDAQDANQCCTSCEDNAPATSYCVECSEPLCETCVEAHQRVKYTKDHTVRSTGPAKSRDGERTVYCNVHKHEPLVLFCESCDTLTCRDCQLNAHKDHQYQFLEDAVRNQRKLLASLVKRLGDKHATLQKSTKEVRSSIRQVSDVQKRVQVDVKMAILQIMKELNKRGRVLVNDAQKVTEGQQERLERQHWTMTKIQKHQEHILRFASWALESDNNTALLLSKKLIYFQLHRALKMIVDPVEPHGEMKFQWDLNAWTKSAEAFGKIVAERPGTNSTGPAPMAPPRAPGPLSKQGSGSSQPMEVQEGYGFGSGDDPYSSAEPHVSGVKRSRSGEGEVSGLMRKVPRVSLERLDLDLTADSQPPVFKVFPGSTTEDYNLIVIERGAAAAATGQPGTAPAGTPGAPPLAGMAIVKEEETEAAIGAPPTATEGPETKPVLMALAEGPGAEGPRLASPSGSTSSGLEVVAPEGTSAPGGGPGTLDDSATICRVCQKPGDLVMCNQCEFCFHLDCHLPALQDVPGEEWSCSLCHVLPDLKEEDGSLSLDGADSTGVVAKLSPANQRKCERVLLALFCHEPCRPLHQLATDSTFSLDQPGGTLDLTLIRARLQEKLSPPYSSPQEFAQDVGRMFKQFNKLTEDKADVQSIIGLQRFFETRMNEAFGDTKFSAVLVEPPPMSLPGAGLSSQELSGGPGDGP
For B2, the C-term flag was 8, the “N-term FLAG” value was 4 and the “C-term IgG” value was 0. For the same molecule, the “N-term IgG” value was 0.
